Data reported in patent publication US20190040132A1 (FRED HUTCHINSON CANCER RESEARCH CENTER, published 2019).

Target: T1, human ROR2 (human, UniProt Q01974 34-943)
T1 construct: also called K562 expressing human ROR2
Assay: IHC on FFPE K562 cells transduced with human ROR2

T1 sequence (Q01974 34-943 limits assumed): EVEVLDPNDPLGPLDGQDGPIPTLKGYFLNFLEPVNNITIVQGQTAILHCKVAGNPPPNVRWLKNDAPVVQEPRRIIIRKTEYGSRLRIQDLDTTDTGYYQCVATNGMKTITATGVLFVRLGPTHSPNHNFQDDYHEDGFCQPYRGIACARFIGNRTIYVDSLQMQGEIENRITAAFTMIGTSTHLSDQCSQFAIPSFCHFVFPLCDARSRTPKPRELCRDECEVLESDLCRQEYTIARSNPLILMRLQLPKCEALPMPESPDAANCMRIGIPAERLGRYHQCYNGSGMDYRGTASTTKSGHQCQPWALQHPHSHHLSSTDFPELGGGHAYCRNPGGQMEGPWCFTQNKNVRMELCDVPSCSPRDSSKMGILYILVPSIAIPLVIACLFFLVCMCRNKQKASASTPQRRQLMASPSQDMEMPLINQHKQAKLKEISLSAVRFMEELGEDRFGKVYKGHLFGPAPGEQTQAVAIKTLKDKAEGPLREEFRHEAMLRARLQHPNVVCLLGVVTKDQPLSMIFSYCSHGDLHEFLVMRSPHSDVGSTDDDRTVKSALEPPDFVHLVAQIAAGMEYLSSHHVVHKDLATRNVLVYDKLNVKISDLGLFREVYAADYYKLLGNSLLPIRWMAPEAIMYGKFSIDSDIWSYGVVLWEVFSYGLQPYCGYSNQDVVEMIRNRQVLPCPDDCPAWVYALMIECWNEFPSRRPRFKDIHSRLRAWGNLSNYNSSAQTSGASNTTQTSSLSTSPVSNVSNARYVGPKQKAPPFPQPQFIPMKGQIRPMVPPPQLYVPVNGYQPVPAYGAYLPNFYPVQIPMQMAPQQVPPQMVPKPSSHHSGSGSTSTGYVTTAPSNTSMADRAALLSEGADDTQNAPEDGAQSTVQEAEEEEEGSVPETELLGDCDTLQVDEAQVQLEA

binding result: no binding
B1: anti-ROR1 monoclonal antibody 6D4 (antibody, V domains shown)
VH: SGPELVKPGTSVKMSCKASGYTFTDYYMNWVKQTHGKNLEWIGRVNPSNGNTDYNQKFKGKATLTVDKSLSTAYMQLSSLTSEDSAVYYCGRLAYWGQGSLVTVSA
VL: LTQSPASLAVSPGQRATISCKASQSVDYDGETYMNWYQQKSGQPPKLLIYAASNLESGIPARFSGSGSGTDFTLNIHPVEEEDAATYYCLQTLKNPYTFGGGTKLEIK
notes: Mouse monoclonal antibody from a hybridoma, used as supernatant or purified; also called mAb 6D4; clone 6D4
